Target: the molecule itself
Experiment: SEC

B1: Methanothermobacter thermautotrophicus MCM protein, wild-type (enzyme, UniProt O27798 1-666, looked up)
chain: MMKTVDKSKTLTKFEEFFSLQDYKDRVFEAIEKYPNVRSIEVDYLDLEMFDPDLADLLIEKPDDVIRAAQQAIRNIDRLRKNVDLNIRFSGISNVIPLRELRSKFIGKFVAVDGIVRKTDEIRPRIVKAVFECRGCMRHHAVTQSTNMITEPSLCSECGGRSFRLLQDESEFLDTQTLKLQEPLENLSGGEQPRQITVVLEDDLVDTLTPGDIVRVTGTLRTVRDERTKRFKNFIYGNYTEFLEQEFEELQISEEDEEKIKELAGDPNIYEKIIRSTAPSIHGYREVKEAIALQLFGGTGKELDDKTRLRGDIHILIVGDPGIGKSQMLKYVSKLAPRGIYTSGKGTSGVGLTAAAVRDEFGGWSLEAGALVLGDKGNVCVDELDKMREEDRSAIHEALEQQTISIAKAGIMATLNSRCSVLAAANPKFGRFDSYKSIAEQIDLPSTILSRFDLIFVVEDKPDEEKDRELARHILKTHKEDHMPFEIDPELLRKYIAYARKNVRPVLTDEAMQVLEDFYVSMRASAADEDSPVPITARQLEALVRLSEASAKIKLKEHVEAEDARKAIKLSQACLKQVGYDPETGKIDIDKVEGRTPKSERDKFRLLLELIKEYEDDYGGRAPTNILITEMMDRYNVSEEKVEELIRILKDKGAIFEPARGYLKIV
stoichiometry N: 12

B2: Methanothermobacter thermautotrophicus MCM protein, P193G mutant (enzyme, UniProt O27798 1-666, looked up)
chain: MMKTVDKSKTLTKFEEFFSLQDYKDRVFEAIEKYPNVRSIEVDYLDLEMFDPDLADLLIEKPDDVIRAAQQAIRNIDRLRKNVDLNIRFSGISNVIPLRELRSKFIGKFVAVDGIVRKTDEIRPRIVKAVFECRGCMRHHAVTQSTNMITEPSLCSECGGRSFRLLQDESEFLDTQTLKLQEPLENLSGGEQGRQITVVLEDDLVDTLTPGDIVRVTGTLRTVRDERTKRFKNFIYGNYTEFLEQEFEELQISEEDEEKIKELAGDPNIYEKIIRSTAPSIHGYREVKEAIALQLFGGTGKELDDKTRLRGDIHILIVGDPGIGKSQMLKYVSKLAPRGIYTSGKGTSGVGLTAAAVRDEFGGWSLEAGALVLGDKGNVCVDELDKMREEDRSAIHEALEQQTISIAKAGIMATLNSRCSVLAAANPKFGRFDSYKSIAEQIDLPSTILSRFDLIFVVEDKPDEEKDRELARHILKTHKEDHMPFEIDPELLRKYIAYARKNVRPVLTDEAMQVLEDFYVSMRASAADEDSPVPITARQLEALVRLSEASAKIKLKEHVEAEDARKAIKLSQACLKQVGYDPETGKIDIDKVEGRTPKSERDKFRLLLELIKEYEDDYGGRAPTNILITEMMDRYNVSEEKVEELIRILKDKGAIFEPARGYLKIV
stoichiometry N: 12

B3: Methanothermobacter thermautotrophicus MCM protein, L184A mutant (enzyme, UniProt O27798 1-666, looked up)
chain: MMKTVDKSKTLTKFEEFFSLQDYKDRVFEAIEKYPNVRSIEVDYLDLEMFDPDLADLLIEKPDDVIRAAQQAIRNIDRLRKNVDLNIRFSGISNVIPLRELRSKFIGKFVAVDGIVRKTDEIRPRIVKAVFECRGCMRHHAVTQSTNMITEPSLCSECGGRSFRLLQDESEFLDTQTLKLQEPAENLSGGEQPRQITVVLEDDLVDTLTPGDIVRVTGTLRTVRDERTKRFKNFIYGNYTEFLEQEFEELQISEEDEEKIKELAGDPNIYEKIIRSTAPSIHGYREVKEAIALQLFGGTGKELDDKTRLRGDIHILIVGDPGIGKSQMLKYVSKLAPRGIYTSGKGTSGVGLTAAAVRDEFGGWSLEAGALVLGDKGNVCVDELDKMREEDRSAIHEALEQQTISIAKAGIMATLNSRCSVLAAANPKFGRFDSYKSIAEQIDLPSTILSRFDLIFVVEDKPDEEKDRELARHILKTHKEDHMPFEIDPELLRKYIAYARKNVRPVLTDEAMQVLEDFYVSMRASAADEDSPVPITARQLEALVRLSEASAKIKLKEHVEAEDARKAIKLSQACLKQVGYDPETGKIDIDKVEGRTPKSERDKFRLLLELIKEYEDDYGGRAPTNILITEMMDRYNVSEEKVEELIRILKDKGAIFEPARGYLKIV
stoichiometry N: 12

B4: Methanothermobacter thermautotrophicus MCM protein, G190A mutant (enzyme, UniProt O27798 1-666, looked up)
chain: MMKTVDKSKTLTKFEEFFSLQDYKDRVFEAIEKYPNVRSIEVDYLDLEMFDPDLADLLIEKPDDVIRAAQQAIRNIDRLRKNVDLNIRFSGISNVIPLRELRSKFIGKFVAVDGIVRKTDEIRPRIVKAVFECRGCMRHHAVTQSTNMITEPSLCSECGGRSFRLLQDESEFLDTQTLKLQEPLENLSGAEQPRQITVVLEDDLVDTLTPGDIVRVTGTLRTVRDERTKRFKNFIYGNYTEFLEQEFEELQISEEDEEKIKELAGDPNIYEKIIRSTAPSIHGYREVKEAIALQLFGGTGKELDDKTRLRGDIHILIVGDPGIGKSQMLKYVSKLAPRGIYTSGKGTSGVGLTAAAVRDEFGGWSLEAGALVLGDKGNVCVDELDKMREEDRSAIHEALEQQTISIAKAGIMATLNSRCSVLAAANPKFGRFDSYKSIAEQIDLPSTILSRFDLIFVVEDKPDEEKDRELARHILKTHKEDHMPFEIDPELLRKYIAYARKNVRPVLTDEAMQVLEDFYVSMRASAADEDSPVPITARQLEALVRLSEASAKIKLKEHVEAEDARKAIKLSQACLKQVGYDPETGKIDIDKVEGRTPKSERDKFRLLLELIKEYEDDYGGRAPTNILITEMMDRYNVSEEKVEELIRILKDKGAIFEPARGYLKIV
stoichiometry N: 12

B5: Methanothermobacter thermautotrophicus MCM protein, E185R mutant (enzyme, UniProt O27798 1-666, looked up)
chain: MMKTVDKSKTLTKFEEFFSLQDYKDRVFEAIEKYPNVRSIEVDYLDLEMFDPDLADLLIEKPDDVIRAAQQAIRNIDRLRKNVDLNIRFSGISNVIPLRELRSKFIGKFVAVDGIVRKTDEIRPRIVKAVFECRGCMRHHAVTQSTNMITEPSLCSECGGRSFRLLQDESEFLDTQTLKLQEPLRNLSGGEQPRQITVVLEDDLVDTLTPGDIVRVTGTLRTVRDERTKRFKNFIYGNYTEFLEQEFEELQISEEDEEKIKELAGDPNIYEKIIRSTAPSIHGYREVKEAIALQLFGGTGKELDDKTRLRGDIHILIVGDPGIGKSQMLKYVSKLAPRGIYTSGKGTSGVGLTAAAVRDEFGGWSLEAGALVLGDKGNVCVDELDKMREEDRSAIHEALEQQTISIAKAGIMATLNSRCSVLAAANPKFGRFDSYKSIAEQIDLPSTILSRFDLIFVVEDKPDEEKDRELARHILKTHKEDHMPFEIDPELLRKYIAYARKNVRPVLTDEAMQVLEDFYVSMRASAADEDSPVPITARQLEALVRLSEASAKIKLKEHVEAEDARKAIKLSQACLKQVGYDPETGKIDIDKVEGRTPKSERDKFRLLLELIKEYEDDYGGRAPTNILITEMMDRYNVSEEKVEELIRILKDKGAIFEPARGYLKIV
stoichiometry N: 12

B6: Methanothermobacter thermautotrophicus MCM protein, Q181A mutant (enzyme, UniProt O27798 1-666, looked up)
chain: MMKTVDKSKTLTKFEEFFSLQDYKDRVFEAIEKYPNVRSIEVDYLDLEMFDPDLADLLIEKPDDVIRAAQQAIRNIDRLRKNVDLNIRFSGISNVIPLRELRSKFIGKFVAVDGIVRKTDEIRPRIVKAVFECRGCMRHHAVTQSTNMITEPSLCSECGGRSFRLLQDESEFLDTQTLKLAEPLENLSGGEQPRQITVVLEDDLVDTLTPGDIVRVTGTLRTVRDERTKRFKNFIYGNYTEFLEQEFEELQISEEDEEKIKELAGDPNIYEKIIRSTAPSIHGYREVKEAIALQLFGGTGKELDDKTRLRGDIHILIVGDPGIGKSQMLKYVSKLAPRGIYTSGKGTSGVGLTAAAVRDEFGGWSLEAGALVLGDKGNVCVDELDKMREEDRSAIHEALEQQTISIAKAGIMATLNSRCSVLAAANPKFGRFDSYKSIAEQIDLPSTILSRFDLIFVVEDKPDEEKDRELARHILKTHKEDHMPFEIDPELLRKYIAYARKNVRPVLTDEAMQVLEDFYVSMRASAADEDSPVPITARQLEALVRLSEASAKIKLKEHVEAEDARKAIKLSQACLKQVGYDPETGKIDIDKVEGRTPKSERDKFRLLLELIKEYEDDYGGRAPTNILITEMMDRYNVSEEKVEELIRILKDKGAIFEPARGYLKIV
stoichiometry N: 12

B7: Methanothermobacter thermautotrophicus MCM protein, E182R mutant (enzyme, UniProt O27798 1-666, looked up)
chain: MMKTVDKSKTLTKFEEFFSLQDYKDRVFEAIEKYPNVRSIEVDYLDLEMFDPDLADLLIEKPDDVIRAAQQAIRNIDRLRKNVDLNIRFSGISNVIPLRELRSKFIGKFVAVDGIVRKTDEIRPRIVKAVFECRGCMRHHAVTQSTNMITEPSLCSECGGRSFRLLQDESEFLDTQTLKLQRPLENLSGGEQPRQITVVLEDDLVDTLTPGDIVRVTGTLRTVRDERTKRFKNFIYGNYTEFLEQEFEELQISEEDEEKIKELAGDPNIYEKIIRSTAPSIHGYREVKEAIALQLFGGTGKELDDKTRLRGDIHILIVGDPGIGKSQMLKYVSKLAPRGIYTSGKGTSGVGLTAAAVRDEFGGWSLEAGALVLGDKGNVCVDELDKMREEDRSAIHEALEQQTISIAKAGIMATLNSRCSVLAAANPKFGRFDSYKSIAEQIDLPSTILSRFDLIFVVEDKPDEEKDRELARHILKTHKEDHMPFEIDPELLRKYIAYARKNVRPVLTDEAMQVLEDFYVSMRASAADEDSPVPITARQLEALVRLSEASAKIKLKEHVEAEDARKAIKLSQACLKQVGYDPETGKIDIDKVEGRTPKSERDKFRLLLELIKEYEDDYGGRAPTNILITEMMDRYNVSEEKVEELIRILKDKGAIFEPARGYLKIV
stoichiometry N: 12

Reference: PMC2275104 (Nucleic Acids Research, 2008)
